Test results: patent publication US8415106B2, “Cell-based screen for agents useful for reducing neuronal demyelination or promoting neuronal remyelination” (Myelin Repair Foundation, Inc., priority 2005, dated 2013)
Read-outs that look alike come from different tables or passages of the source.

Tests used:
[1] = tested on: mice with EAE; assay: MOG35-55-induced EAE, CNS delivery of INF-γ at the recovery stage (doxycycline withdrawn at PID7); assay type: in vivo; conditions: DOX− mice
Description: Double transgenic mice that allow for temporally regulated delivery of INF-γ to the CNS (Lin et al., J Neurosci 24:10074-10083 (2004)) were used to assess the role of INF-γ in the pathogenesis of EAE. GFAP/tTA; TRE/IFN-γ double transgenic mice, as described in Example 1 were used to determine the effect of INF-γ on the demyelination caused by EAE. All mice were fed doxycycline from the day of conception to repress the expression of INF-γ, and were immunized with myelin oligodendrocyte protein (MOG35-55) to induce EAE. At day 7 postimmunization (PID7), doxycycline was withdrawn from the experimental group (PID7 DOX−).
The level of INF-γ was determined in the control (DOX+) and the PID7 DOX− mice using an ELISA immunoassay as described in Example 1, and the severity of the disease was assessed as a function of a clinical score. Clinical severity scores were recorded daily according to a 0-5 point scale, where 0=healthy, 1=flaccid tail, 2=ataxia and/or paresis of hind limbs, 3=paralysis of hind limbs and/or paresis of forelimbs, 4=tetraparalysis, and 5=moribund or dead.
The spinal cord from DOX+ and DOX− animals with EAE was immunostained for MBP, and the remyelination of axons was evaluated. The number of oligodendrocytes was determined in the spine from DOX+ and DOX− mice as the number of CC1 positive cells. Axonal damage was evaluated by immunostaining of non-phosphorylated neurofilament-H. Antibodies to non-phosphorylated neurofilament-H Were SMI32 diluted to 1:1000 and obtained from Sternberger Monoclonals.

[2] = tested on: myelinating oligodendrocytes in the CNS; assay type: in vivo
Description: To study the effect of INF-γ on the myelination of oligodendrocytes during mouse development, transgenic mice that allow for temporally regulated delivery of IFN-γ to the CNS using the tetracycline (tet) controllable system (Lin, et al. (2004) J. Neurosci. 24: 10074-10083) were generated. To drive tTA expression in astrocytes, the transcriptional regulatory region of the glial fibrillary acidic protein (GFAP) gene was chosen (Brenner, et al. (1994) J. Neurosci. 14: 1030-1037). GFAP/tTA mice were mated with TRE/IFN-γ mice to produce animals hemizygous for both transgenes. When these mice are maintained on doxycycline (DOX+), expression of the IFN-γ transgene is repressed (FIG. 10A); when the double transgenic mice are released from doxycycline (DOX−) INF-γ is expressed. For the purpose of these experiments, mice received doxycycline up to day 14 of development (E14), at which time the experimental animals (DOX−) stopped receiving doxycycline, while the control animals (DOX+) were continuously fed the dug. The mRNA for IFN-γ could be detected in the DOX− mice as early as 10 days after birth (data not shown).
Brain and spinal cord tissue were analyzed using immunohistochemical methods as follows. Anesthetized mice were perfused through the left cardiac ventricle with 4% paraformaldehyde in 0.1M PBS. The half-saggital brains and transcervical spinal cord were removed, postfixed with paraformaldehyde, cryopreserved in 30% sucrose, embedded in OCT and frozen on dry ice. Frozen sections were cut in a cryostat at a thickness of 10 μm. Coronal sections at the fornix region of the corpus callosum corresponding to. Sidman sections 241-251 were selected for use, and all comparative analyses were restricted to midline corpus callosum (Sidman, et al. (1971) Atlas of the Mouse Brain and Spinal Cord (Harvard Univ. Press, Cambridge, Mass.). For immunohistochemistry, frozen sections were treated with −20° C. acetone, blocked with PBS containing 10% NGS and 0.1% Triton X-100 and incubated overnight with the primary antibody diluted in blocking solution. Appropriate fluorochrome- or enzyme-labeled secondary antibodies (Vector Laboratories, Burlingame, Calif.) were used for detection. An antibody against CC1 (APC7, 1:50; EMD Biosciences, Inc., La Jolla, Calif.) was used as a marker for mature oligodendrocytes. Antibody against MBP (1:1000; Sternberger Monoclonals, Lutherville, Mass.) was used to verify the degree of myelination. Antibody against active-caspase-3 (1:50, Cell signaling Technology, Beverly, Mass.) was used as a marker for apoptotic cells. Fluorescent stained sections were mounted with Vectashield mounting medium with DAPI (Vector Laboratories) and visualized with a Zeiss Axioplan fluorescence microscope. Images were captured using a Photometrics PXL CCD camera connected to an Apple Macintosh computer using the Open Lab software suite. Immunopositive cells were quantified by counting positive cells within the median of the corpus callosum, confined to an area of 0.04 mm^2. Only those cells with nuclei observable by DAPI staining were counted. Each MBP immunostaining slide was scored on a scale of zero to four. A score of zero indicates complete demyelination, and a score of four indicates normal myelination in the corpus callosum of adult mice. […]

B1: IFN-γ: pleotropic cytokine secreted by activated T lymphocytes and natural killer cells; recombinant rat IFN-γ added to cultures or transgenically expressed in mouse CNS (protein, UniProt P01581 23-156, looked up)
Interferon gamma: QGTLIESLESLKNYFNSSSMDAMEGKSLLLDIWRNWQKDGNTKILESQIISFYLRLFEVLKDNQAISNNISVIESHLITNFFSNSKAKKDAFMSIAKFEVNNPQIQHKAVNELIRVIHQLSPESSLRKRKRSRC
For B1, which “mean maximum clinical score” value ([1]; PID17, 0-5 point scale, DOX+ 2.66±0.80) is on record?
The value was 2.69±0.69.

What about the “mice that developed hind limb paralysis” value ([1]; PID17, control twenty of 25) of the same molecule?
Its value is 24 of 30.

What about the “mice with hind limb paralysis that continued to suffer from the paralysis” value ([1]; PID50) of the same molecule?
The value was 12/24.

And the clinical score ([1]; PID 50, control DOX+ less than 1)?
The clinical score was about 2.

What about the “unmyelinated axons in the spinal cord” value ([2]; 14-day-old, IFN-γ expressed, PERK+/− background, doxycycline-maintained 9.8%±6.1%) of the same molecule?
The value was 81%±14.9%.

What about the “decrease of oligodendrocyte numbers in the spinal cord” value ([2]; 14-day-old, IFN-γ expressing, PERK+/− background) of the same molecule?
The value was “more than 50%”.

And the “unmyelinated axons in the spinal cord” value ([2]; 14-day-old, released from doxycycline at E14, wild-type background)?
The value was 30%±12.9%.

And the “mice that died by post natal day (PND) 27” value ([2]; double transgenic, released from doxycycline at E14, PERK+/− background)?
Its value is “more than 90%”.

And the “TUNEL positive oligodendrocytes in the cervical spinal cord, PERK+/− versus wild-type background” value ([2]; released from doxycycline at E 14)?
The value was 2.5 times.
